Assay results from patent US11351270B2, “Junctophilin-2 fragments and uses therefor” (University of Iowa Research Foundation, priority 2016, dated 2022).

What was measured:
[1] = target: T1, MEF2C (Homo sapiens, UniProt Q06413); test: Co-IP of Myc-tagged MEF2C and HA-tagged JP2NT in 293 cells; assay type: binding
T1 construct: expressed in transfected cells; host or cells: 293 cells
Source text: The MEF2 family, master regulators of hypertrophic genes in cardiomyocytes, binds to the A/T enriched consensus sequence (C/TTA(A/T)4TA G/A), which shares the same core sequence with TATA box. Thus, it was hypothesized that JP2NT directly interacts with MEF2 binding sites.

[2] = test system: HEK293T cells; test: Subcellular localization by confocal imaging; assay type: cell-based; details: HEK293T cells and cardiomyocytes
Procedure: Immunofluorescence was done as described previously (Guo et al., 2015). A Zeiss confocal microscope LSM510 was used for recording cell images.
To Investigate the molecular mechanism of JP2NT nuclear importation, an in silico analysis (Sigrist et al., 2002) was performed. […] These domains are evolutionarily conserved among species (FIGS. 18B-C). […] Indicating this NLS is Indispensable for nuclear localization of JP2NT. A fusion protein containing mCherry and the bNLS peptide with the ARR was imported into nuclei (FIG. 16D).

T1 sequence (Q06413 whole entry, species assumed): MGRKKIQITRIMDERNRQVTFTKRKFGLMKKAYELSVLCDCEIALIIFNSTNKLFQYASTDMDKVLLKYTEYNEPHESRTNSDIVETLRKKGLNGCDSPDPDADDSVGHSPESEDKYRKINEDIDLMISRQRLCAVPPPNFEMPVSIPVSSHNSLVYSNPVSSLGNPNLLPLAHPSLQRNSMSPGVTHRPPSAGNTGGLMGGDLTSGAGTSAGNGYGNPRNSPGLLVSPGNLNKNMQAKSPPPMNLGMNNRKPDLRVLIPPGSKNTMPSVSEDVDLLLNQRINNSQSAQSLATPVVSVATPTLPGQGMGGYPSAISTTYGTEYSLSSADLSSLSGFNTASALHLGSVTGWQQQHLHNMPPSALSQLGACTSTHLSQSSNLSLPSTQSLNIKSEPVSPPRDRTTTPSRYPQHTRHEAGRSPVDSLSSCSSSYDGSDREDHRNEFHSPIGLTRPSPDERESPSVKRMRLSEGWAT

B1: JP2NT: shorter form of Junctophilin-2 including the first 565 amino acids of N-terminus of JP2 (protein, UniProt Q9BR39 1-565, looked up, fragment)
chain: MSGGRFDFDDGGAYCGGWEGGKAHGHGLCTGPKGQGEYSGSWNFGFEVAGVYTWPSGNTFEGYWSQGKRHGLGIETKGRWLYKGEWTHGFKGRYGIRQSSSSGAKYEGTWNNGLQDGYGTETYADGGTYQGQFTNGMRHGYGVRQSVPYGMAVVVRSPLRTSLSSLRSEHSNGTVAPDSPASPASDGPALPSPAIPRGGFALSLLANAEAAARAPKGGGLFQRGALLGKLRRAESRTSVGSQRSRVSFLKSDLSSGASDAASTASLGEAAEGADEAAPFEADIDATTTETYMGEWKNDKRSGFGVSERSSGLRYEGEWLDNLRHGYGCTTLPDGHREEGKYRHNVLVKDTKRRMLQLKSNKVRQKVEHSVEGAQRAAAIARQKAEIAASRTSHAKAKAEAAEQAALAANQESNIARTLARELAPDFYQPGPEYQKRRLLQEILENSESLLEPPDRGAGAAGLPQPPRESPQLHERETPRPEGGSPSPAGTPPQPKRPRPGVSKDGLLSPGAWNGEPSGEGSRSVTPSEGAGRRSPARPATERMAIEALQAPPAPSREPEVALYQG
modifications: GST or adenoviral forms
notes: shorter form of Junctophilin-2 including the first 565 amino acids of N-terminus of JP2
interaction with MEF2C [1]: interaction
nuclear localization / nuclear importation [2]: highly enriched in nuclei
